± gives the uncertainty stated by the source.
Assay: amyloid nucleation score (Sup35N fusion, yeast selection) (log enrichment); library NNK1; higher = more nucleation; inactive = no reads after selection
How it was run: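 The nucleation score is the DiMSum log enrichment of output over input reads, centred on the mode score of non-aggregating sequences. Only sequences with 100 or more input reads were scored, using Illumina sequencing of input and output plasmid inserts. Psi-negative yeast expressing Sup35N fused to peptides of 20 random codons were induced 24 hours with 100 μM copper sulfate and grown 7 days at 30°C on medium lacking adenine and uracil.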

RGEVHSIWTPPLHKGQEMGI and PLVCRGLLSRCGNPSGKCGR are within error of each other in amyloid nucleation score: 0.048 ± 0.78 for the first, -0.125 ± 1.7 for the second.

ISRPSSSGRLHVVMTSSNAR and GSSRDNGQFYSFELS are within error of each other in amyloid nucleation score: 0.421 ± 0.39 for the first, 0.398 ± 0.64 for the second.

First: LDKSGSLVPKRKVTLKDKQR
Second: YMRGGQDFYYVQDIVVFLLL
The amyloid nucleation score of the first is lower: -0.375 ± 0.41 for the first, 4.24 ± 0.094 for the second.

First: GTIWYITLAGRFNDVIIYTM
Second: YSRMQVAIYMYLVE
The amyloid nucleation score of the first is lower: 2.4 ± 0.077 for the first, 3.19 ± 0.17 for the second.

Going from EIRWSHIFERWV to LRTKSLWSF, the amyloid nucleation score falls from 0.628 ± 0.38 to -0.515 ± 0.59.

SFIFLILMSAWFPFMRVTFG and TLSGFYPMYHHLCHECVLKP are within error of each other in amyloid nucleation score: 0.198 ± 0.64 for the first, 1.13 ± 0.37 for the second.

First: NFCDSSGI
Second: THGPFRCLSNCDVFTPNPEE
The amyloid nucleation score of the first is lower: -0.912 ± 1.2 for the first, 1.03 ± 0.62 for the second.

VSAVDMMYHLLHRILGIIAC and LLRRLTTI are within error of each other in amyloid nucleation score: 1.48 ± 0.55 for the first, 0.696 ± 0.52 for the second.

FYPIYGFRWTIFYQPALYNL and SNLVCII are within error of each other in amyloid nucleation score: -1.08 ± 1.7 for the first, 0.211 ± 0.59 for the second.

AGCHGSDSHPFRQPSPLLLF and MSSNMLSEKWASGTEHVGVV are within error of each other in amyloid nucleation score: 0.462 ± 1.2 for the first, -0.657 ± 0.69 for the second.

GYGWFLCTIHVQKLVCWPTL and TVISV are within error of each other in amyloid nucleation score: -0.114 ± 1.1 for the first, -1.47 ± 0.5 for the second.

NSCWRTGLQVPVSQHYNQTI and DHFKG are within error of each other in amyloid nucleation score: -0.492 ± 0.61 for the first, -0.044 ± 0.84 for the second.

First: FIISRD
Second: LRHRKSRNRVSCHCLGHGCW
The amyloid nucleation score of the first is lower: -0.028 ± 0.34 for the first, 1.54 ± 0.84 for the second.

Compared with GCIECEGAGCAPIYGVEWLD, VISIFVEF is higher in amyloid nucleation score: 0.122 ± 0.84 for the first, 3.69 ± 0.12 for the second.

MLLFSSVITVMFFGTSIHDG and CRNSTVGITLIGWTSHFFNI are within error of each other in amyloid nucleation score: -0.101 ± 1.2 for the first, 1.2 ± 0.76 for the second.

Compared with GVNCKYVVLKNNVIWTHCLR, CWWRV is lower in amyloid nucleation score: 6.453 ± 0.05 for the first, -0.761 ± 0.83 for the second.

Compared with KCTWTN, MAFYSTSLSFSEGGIRCSIY is higher in amyloid nucleation score: 0.255 ± 0.87 for the first, 5.14 ± 0.08 for the second.

RWMSYHIVPRRGSYCVTTLT and FINHKHKQDQVI are within error of each other in amyloid nucleation score: 0.492 ± 0.85 for the first, 1.48 ± 0.49 for the second.

Going from REANNPCRVNTKSIVVRLEV to RFVLWYYDY, the amyloid nucleation score rises from -0.787 ± 0.32 to 3.12 ± 0.076.

SAVSMVR and NSSHLLVMCDICYNFKVRTL are within error of each other in amyloid nucleation score: -0.594 ± 0.55 for the first, -1.69 ± 1.5 for the second.

WSNADEFGPD and GHSSRLRFT are within error of each other in amyloid nucleation score: -0.256 ± 0.51 for the first, -0.42 ± 0.48 for the second.

AGLITSDDMAYWIGILFCNL and TLKFGSYQAVRLSHSGKPDD are within error of each other in amyloid nucleation score: 2.57 ± 0.14 for the first, 2.55 ± 0.1 for the second.

KEGLRDGLLCRYQTCAG and FSHLKYNSVHFIPLRDFDSL are within error of each other in amyloid nucleation score: 0.091 ± 0.48 for the first, 0.938 ± 0.41 for the second.

First: TISGNVSCQKYSRLCVQGLS
Second: VTMLRSFMHELHSGLKKDLK
The amyloid nucleation score of the first is lower: 0.449 ± 0.25 for the first, 2.06 ± 0.11 for the second.

Compared with APSYRATWRAVNCAILGPLY, RSALVLVYGLTACLNGLGMC is higher in amyloid nucleation score: -0.567 ± 0.61 for the first, 3.04 ± 0.097 for the second.

LYIYTKFRFVMYVSWCVSDS and QTGAAFMVAASRGKKTGVLR are within error of each other in amyloid nucleation score: 0.012 ± 0.62 for the first, 0.327 ± 0.28 for the second.

SRSSCQVMVSRDAADVLHRI and PYIVKVCGCDPLVHLFI are within error of each other in amyloid nucleation score: 0.423 ± 0.58 for the first, 0.608 ± 0.23 for the second.

TRRDNVPQHNLGVTLLMVRE and YSTLRGFNYVFLKYIVK are within error of each other in amyloid nucleation score: -1.29 ± 2.7 for the first, 0.724 ± 0.54 for the second.

Going from GDKSFSYCSLCCLFWARLPR to SKEFPHMYFFGVRFVVVTKV, the amyloid nucleation score falls from 5.83 ± 0.064 to -0.246 ± 0.45.

Going from NGTIHMPLVWGYKLDRPRGW to HMRGLG, the amyloid nucleation score rises from 0.969 ± 0.7 to 6.77 ± 0.083.

First: SMGLYRDLRLKCFC
Second: MQMSLTDSGGVYVDGLVGYL
The amyloid nucleation score of the first is higher: 1.02 ± 0.47 for the first, -0.239 ± 0.31 for the second.

LNEHLFR and HTYDGHSVSGCTGHVMFLSS are within error of each other in amyloid nucleation score: 0.615 ± 0.87 for the first, -0.021 ± 0.41 for the second.

Compared with SCKGQPARVTCETRFTGYER, KITSEPTKFYMGVCPSRSEL is lower in amyloid nucleation score: 2.32 ± 0.49 for the first, -0.112 ± 0.44 for the second.

YYSHIIQAGCWVVYRDVRLF and LYMPSGNIFG are within error of each other in amyloid nucleation score: 0.52 ± 0.88 for the first, 0.973 ± 0.8 for the second.

PCIVKYRNSGLHNYRIRLNR and DFIKYAFSWE are within error of each other in amyloid nucleation score: -1.12 ± 0.97 for the first, -0.347 ± 0.36 for the second.

WVYHRQKSCAIFRAEIM and RYGRYSCSIIEGLCLMSSKW are within error of each other in amyloid nucleation score: -0.088 ± 0.48 for the first, 0.676 ± 0.95 for the second.

VTIAHNGNLSCRLYTYVQVR and VRSGDCYRSNSKSVFVMAIR are within error of each other in amyloid nucleation score: 0.515 ± 0.57 for the first, 0.617 ± 0.49 for the second.

FHLSDGDWYCHVESVTWRAC and EWKNGSHMWLQRLGESWNRL are within error of each other in amyloid nucleation score: 0.375 ± 0.87 for the first, -0.413 ± 0.35 for the second.

TMTSPVGWETSSFRRMDR and FLKFDTSMVVLGWTFLMESF are within error of each other in amyloid nucleation score: 0.796 ± 0.52 for the first, -0.023 ± 0.41 for the second.

Compared with PDSTVARVDVSPELIFCLKS, IFLIVMFPLFNDCLHCYKTC is higher in amyloid nucleation score: -0.708 ± 0.6 for the first, 1.3 ± 0.13 for the second.

Work on TVWYYSHPS yielded an amyloid nucleation score of 0.34 ± 0.48.

With NVSNLGSLMSTYGESCLVNF the amyloid nucleation score was “inactive”.
With IHNSVDKTYLCSVLNPRGYS the amyloid nucleation score was “inactive”.
In the case of DLIWPRTRYRSTVD, the amyloid nucleation score is reported as “inactive”.
With AKGYTEMVKYHRVSTTMVFM the amyloid nucleation score was “inactive”.
For FESMVTIILIDPFDVLIGDG, the amyloid nucleation score was “inactive”.
With CVLPSNYDFV the amyloid nucleation score was “inactive”.
